The results in this text go back to publication PMC4562469 (Science translational medicine, 2014).

For experiment [1], the target named is recombinant soluble human CD4 (human, UniProt P01730). Briefly: ELISA. (In general: ELISA stands for enzyme-linked immunosorbent assay.)
Experiment [2] addresses recombinant soluble rhesus CD4 (Macaca mulatta (rhesus macaque), UniProt P16003). Put plainly: ELISA.

Sequence of recombinant soluble rhesus CD4 (P16003 26-396): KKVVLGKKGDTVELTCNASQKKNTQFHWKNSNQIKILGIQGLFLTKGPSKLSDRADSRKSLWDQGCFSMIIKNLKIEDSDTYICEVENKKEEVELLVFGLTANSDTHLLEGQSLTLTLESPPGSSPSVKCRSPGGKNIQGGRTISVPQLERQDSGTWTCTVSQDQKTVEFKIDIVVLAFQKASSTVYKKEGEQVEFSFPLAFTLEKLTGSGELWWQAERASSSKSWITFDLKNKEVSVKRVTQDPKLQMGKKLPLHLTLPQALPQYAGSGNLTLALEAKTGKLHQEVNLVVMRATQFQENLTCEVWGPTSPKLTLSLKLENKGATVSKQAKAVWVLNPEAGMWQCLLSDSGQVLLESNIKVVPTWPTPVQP

B1: mAb 2D5 (anti-CD4 monoclonal antibody) (antibody, V domains shown)
VH: QVKLQQSGPELKKPGETVKISCKASGYTFTDYSMHWVKQAPGKGLKWLGRINTETGEAKYVDDFMGHLAFSLETSASTAYLQINNLKNEDTATYFCARYDGYSWDAMDYWGQGTSVIVSS
VL: DIMLTQSPASLTVSLGQRATMSCRASQSVSTSRYSYMHWYQEKAGQPPQLLIKYASNLESGVPARFSGSGSGTDFTLNIHPVEAEDTATYYCQHSWEIPYTFGGGTKLEIK
In the case of B1, the binding result in experiment [1] and in experiment [2] was “binds” throughout.
